For 1 substance, Kd results are on record in US20030228663A1.

This assay concerns the target HER2 extracellular domain (HER2-ECD) (human) (UniProt P04626). Put plainly: SPR (BIAcore 2000 or 3000), Fab over immobilized HER2-ECD, 37 °C, KD = koff/kon.

By Kd is commonly meant the constant that tells how readily two partners part at equilibrium. Read a high Kd as weaker binding.

As for “hu4D5-8 Fab M.7 (N30(VL)S+H91(VL)F+Y92(VL)W+T94(VL)S+D98(VH)W+Y100a(VH)F+Y102(VH)V)”, the Kd is 0.38 nM.
